The text below walks through data of publication PMC10626543, “Native lamin A/C proteomes and novel partners from heart and skeletal muscle in a mouse chronic inflammation model of human frailty” (Frontiers in Cell and Developmental Biology, 2023).

In this assay the target is T1, recombinant lamin A tail (residues 385–646 of human mature lamin A) (human, UniProt P02545 385-646).
T1 construct: lamin A, human, residues 385-646 of mature lamin A: flexible linker 385-429, Ig-fold 430-544, disordered 545-646; also called lamin A tails; LamA; not shown: His tag, C-terminal, kept
T1 sequence (looked up): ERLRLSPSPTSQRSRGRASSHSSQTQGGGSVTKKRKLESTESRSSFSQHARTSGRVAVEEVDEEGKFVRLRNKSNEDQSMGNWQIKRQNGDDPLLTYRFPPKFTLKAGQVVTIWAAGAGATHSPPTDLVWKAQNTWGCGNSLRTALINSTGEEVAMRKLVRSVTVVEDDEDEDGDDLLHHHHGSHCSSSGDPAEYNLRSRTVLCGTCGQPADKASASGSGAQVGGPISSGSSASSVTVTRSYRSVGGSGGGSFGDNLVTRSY
The assay is described as follows: peptide or protein array; synthetic 20-mer peptides (7-residue offset) on cellulose; probed 3 h at room temperature with 190 nM His-tagged lamin A tail in casein blocking solution (TBS-T, sucrose, pH 7.0); bound lamin detected with anti-lamin A/C clone 14 and AP-conjugated secondary antibody; two experiments, each with an antibodies-only control. As to conditions: both partners purified.

B1: Perm1 peptide j2 (aa 737–756) (peptide)
peptide: FVAFATWAVRTSDPHTPDAW
notes: Perm1, human, residues 737-756; source: synthetic peptide, on cellulose array
As for B1, the binding result is listed as “binds”.

B2: Lmcd1 peptide v17 (aa 309–328) (peptide)
peptide: SGCDEIIFAEDYQRVEDLAW
notes: Lmcd1, human, residues 309-328 (second LIM domain); source: synthetic peptide, on cellulose array
B2: the binding result is on record as “binds”.

B3: Perm1 peptide h16 (aa 529–548) (peptide)
peptide: QTATGAHGGPGAWEAVAVGP
notes: Perm1, human, residues 529-548; source: synthetic peptide, on cellulose array
With B3, the binding result is reported as “binds”.

B4: Perm1 peptide i4 (aa 593–612) (peptide)
peptide: EENEEAEAAAAGQDPAGVQW
notes: Perm1, human, residues 593-612; source: synthetic peptide, on cellulose array
As to B4, the binding result is “binds”.

B5: prelamin A peptide X1 (aa 499–518) (peptide)
peptide: AAGAGATHSPPTDLVWKAQN
notes: prelamin A, human, residues 499-518 (Ig-fold); source: synthetic peptide, on cellulose array
With B5, the binding result is “binds”.

B6: AldoA peptide r20 (aa 309–328) (peptide)
peptide: SALKAWGGKKENLKAAQEEY
notes: AldoA, human, residues 309-328; source: synthetic peptide, on cellulose array
For B6, the binding result was “binds”.

B7: prelamin A peptide W14 (aa 450–469) (peptide)
peptide: KFVRLRNKSNEDQSMGNWQI
notes: prelamin A, human, residues 450-469 (Ig-fold); source: synthetic peptide, on cellulose array
For the molecule B7, the binding result was “binds”.

B8: AldoA peptide r19 (aa 302–321) (peptide)
peptide: YGRALQASALKAWGGKKENL
notes: AldoA, human, residues 302-321; source: synthetic peptide, on cellulose array
Take B8: the binding result was “binds”.

B9: prelamin A peptide W19 (aa 485–504) (peptide)
peptide: PKFTLKAGQVVTIWAAGAGA
notes: prelamin A, human, residues 485-504 (Ig-fold); source: synthetic peptide, on cellulose array
B9: the binding result was “binds”.

B10: Tmem38A peptide k16 (aa 197–216) (peptide)
peptide: FTLQQTRWLPVSKASLIFIF
notes: Tmem38a, human, residues 197-216; source: synthetic peptide, on cellulose array
Consider B10, for which the binding result is on record as “binds”.

B11: Tmem38A peptide j13 (aa 36–55) (peptide)
peptide: YLKYEPGAVELSRRHPIASW
notes: Tmem38a, human, residues 36-55; source: synthetic peptide, on cellulose array
Regarding B11, the binding result is “binds”.

B12: Tmem38A peptide k10 (aa 155–174) (peptide)
peptide: KGSGVALMSNFEQLLRGVWK
notes: Tmem38a, human, residues 155-174; source: synthetic peptide, on cellulose array
On to B12, for which the binding result was “binds”.

B13: Perm1 peptide h5 (aa 441–460) (peptide)
peptide: SSGLVSTPVPRADAAGLAWP
notes: Perm1, human, residues 441-460; source: synthetic peptide, on cellulose array
For the molecule B13, the binding result is given as “binds”.

B14: AldoA peptide r18 (aa 295–314) (peptide)
peptide: PWALTFSYGRALQASALKAW
notes: AldoA, human, residues 295-314; source: synthetic peptide, on cellulose array
On to B14, for which the binding result was “binds”.
